Reference: article PMC6296668
Values joined by “and” are separate entries in the source; they are usually repeats but may differ in a detail not shown here. Equal entries are not always repeated.

Legend:
[1] = target: CAP256 SU gp140-FL-IP (HIV-1 subtype C (CAP256 SU)); assay: native gel or EMSA; NativePAGE Novex 3-12% Bis-Tris gels (BN-PAGE) of lectin-purified protein, Coomassie stain or anti-gp160 western blot; oligomer judged by molecular weight against NativeMark standard
[2] = target: CAP256 gp140-FL-IP-His (HIV-1 subtype C (CAP256 SU)); assay: as above

| Substance | stoichiometry N [1] | stoichiometry N [2] |
| --- | --- | --- |
| CAP256 SU gp140-FL-IP (domain or fragment) | 3 |  |
| CAP256 gp140-FL-IP-His (domain or fragment) |  | 3 and 2 |
